The source of these data is doi:10.1101/2022.01.13.476221.

* marks the point of attachment. Biotin = O=C1N[C@H]2[C@H](CS[C@H]2CCCCC(=O)*)N1

The target in assay [1] is T1, unphosphorylated human MST2-FL (residues 1-484) (human) (UniProt Q13188).
T1 sequence: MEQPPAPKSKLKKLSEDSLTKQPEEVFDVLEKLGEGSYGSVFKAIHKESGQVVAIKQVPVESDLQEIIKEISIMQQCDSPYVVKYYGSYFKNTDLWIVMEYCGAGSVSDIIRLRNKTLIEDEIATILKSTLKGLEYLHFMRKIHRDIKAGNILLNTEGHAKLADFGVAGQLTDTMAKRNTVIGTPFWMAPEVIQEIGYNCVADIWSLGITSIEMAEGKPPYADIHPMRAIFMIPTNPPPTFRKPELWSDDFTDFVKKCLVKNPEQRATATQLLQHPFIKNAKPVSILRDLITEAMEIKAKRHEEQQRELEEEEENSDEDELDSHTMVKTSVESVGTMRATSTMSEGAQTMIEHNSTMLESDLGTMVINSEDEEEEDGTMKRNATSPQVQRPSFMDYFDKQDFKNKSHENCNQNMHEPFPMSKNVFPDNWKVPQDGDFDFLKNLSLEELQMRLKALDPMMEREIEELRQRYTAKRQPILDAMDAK

Assay [2] addresses T2, unphosphorylated human MST2-K (kinase domain, residues 1-314) (human) (UniProt Q13188).
T2 sequence: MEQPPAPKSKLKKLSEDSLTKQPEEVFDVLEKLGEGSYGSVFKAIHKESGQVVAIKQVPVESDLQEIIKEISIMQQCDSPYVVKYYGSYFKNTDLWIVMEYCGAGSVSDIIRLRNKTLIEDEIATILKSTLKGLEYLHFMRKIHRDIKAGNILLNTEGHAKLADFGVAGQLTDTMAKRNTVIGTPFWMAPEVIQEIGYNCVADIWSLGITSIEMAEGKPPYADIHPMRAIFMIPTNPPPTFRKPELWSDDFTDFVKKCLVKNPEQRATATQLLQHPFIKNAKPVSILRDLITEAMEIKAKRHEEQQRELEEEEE

In assay [3] the target is T3, unphosphorylated human MST2-KL (kinase-linker, residues 1-433) (human) (UniProt Q13188).
T3 sequence: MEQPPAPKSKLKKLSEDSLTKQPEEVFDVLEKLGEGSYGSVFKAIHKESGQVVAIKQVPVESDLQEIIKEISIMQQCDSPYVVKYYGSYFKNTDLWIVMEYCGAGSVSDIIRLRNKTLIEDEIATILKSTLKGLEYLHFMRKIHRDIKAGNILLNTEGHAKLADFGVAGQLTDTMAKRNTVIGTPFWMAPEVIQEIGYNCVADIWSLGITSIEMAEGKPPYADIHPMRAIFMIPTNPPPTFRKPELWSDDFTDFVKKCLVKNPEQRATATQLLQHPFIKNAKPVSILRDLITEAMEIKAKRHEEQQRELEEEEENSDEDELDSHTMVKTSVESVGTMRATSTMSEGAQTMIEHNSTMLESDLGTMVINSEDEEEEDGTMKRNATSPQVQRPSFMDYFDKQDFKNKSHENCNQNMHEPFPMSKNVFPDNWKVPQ

B1: biotinylated peptide substrate Biotin-…-NH2 (peptide)
peptide: Biotin-GGGENWYNTLKRKK-NH2
SMILES: CC(C)C[C@H](NC(=O)[C@@H](NC(=O)[C@H](CC(N)=O)NC(=O)[C@H](Cc1ccc(O)cc1)NC(=O)[C@H](Cc1c[nH]c2ccccc12)NC(=O)[C@H](CC(N)=O)NC(=O)[C@H](CCC(=O)O)NC(=O)CNC(=O)CNC(=O)CNC(=O)CCCC[C@@H]1SC[C@@H]2NC(=O)N[C@@H]21)[C@@H](C)O)C(=O)N[C@@H](CCCCN)C(=O)N[C@@H](CCCNC(=N)N)C(=O)N[C@@H](CCCCN)C(=O)N[C@@H](CCCCN)C(N)=O
Regarding B1, the Km^app (peptide), radiometric kinase assay, steady state, 30°C was found to be 139 µM in assay [1], 625 µM in assay [2] and 804 µM in assay [3].
